# Data taken from the supplement of paper PMC10126150.
# ± gives the standard deviation of the averaged measurements.
# Tested on: ATP
# Test: switch fluorescence ratio, 500 uM ATP over buffer (Cy3 cluster intensity, sum of 5 cycles each) (fold (ratio)); higher = stronger signal-on switching upon ATP binding; sequences stand for … in TCGTCGGCAGCGTCAGATGTGTATAAGAGACAGTTTTTTTTTTTTTTTTTTTTTTTTT…TC
# Conditions: aptamer strand: ATP DNA aptamer (quencher-CACCTGGGGGAGTATTGCGGAGGAAGG + anchor), 100 nM annealed; ATP concentration: 500 uM
# Outline: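 Imaging in selection buffer was followed by imaging after 15 min with 500 uM ATP at 22 °C, for Cy3-labelled switching-strand clusters annealed to 100 nM quencher-labelled ATP aptamer on a modified Illumina MiSeq flow-cell. Five of these buffer/ATP cycles ran, separated by NaOH stripping and re-annealing. The fluorescence ratio per cluster is summed target-cycle over summed buffer-cycle Cy3 intensity, averaged per switch-domain sequence; clusters outside 100-1000 RFU were removed.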
# 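Also: ATP exposure 15 min at 22 °C before imaging.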
row,Sequence,switch fluorescence ratio
1,TAGAGGCCGG,1 ± 0.003
2,CTGTAGGGTT,1.01 ± 0.034
3,TCAGTTGGAA,0.977 ± 0.039
4,AATAAGGATA,1.01 ± 0.026
5,ATGAGTGTGT,0.984 ± 0.015
6,TCGTAGGGG,0.961 ± 0.018
7,AAGTACTTGG,1.17 ± 0.017
8,TTGTATCACG,1.03 ± 0.059
9,AGTTGGTAGC,1.01 ± 0.011
10,TCGGACTCGG,0.963 ± 0.017
11,TGAGTCTGCT,0.998 ± 0.087
12,GTTGGAGGGT,0.977 ± 0.047
13,GGGACTTAGC,1.02 ± 0.022
14,TTAGGGGATC,1 ± 0.025
15,TGAATGAAGG,1.01 ± 0.058
16,TGAGAGTTTG,0.987 ± 0.017
17,TGGGTGATAT,0.989 ± 0.018
18,CGCGGGGGGA,1.03 ± 0.06
19,GGGGTTGACG,0.964 ± 0.059
20,ATGGCCCGGC,1.03 ± 0.017
21,GATTTTTATA,0.969 ± 0.028
22,TTCGGGCATT,0.989 ± 0.046
23,ACCCCATGTT,1.86 ± 1

row,Sequence,switch fluorescence ratio
1,GATGGCGTGG,0.964 ± 0.038
2,AGAGTTCTCG,0.978 ± 0.012
3,GAAGTAGCAG,0.984 ± 0.025
4,AATAGTTGGG,1.03 ± 0.015
5,TTTAGGCTTT,1 ± 0.012
6,TAATGTGGCC,1.01 ± 0.039
7,GACGCTAAGG,1.094 ± 0.0069
8,AGTTTTTGGT,0.97 ± 0.028
9,GATGGTTTGT,0.988 ± 0.039
10,AATTTTATCG,0.9741 ± 0.0085
11,GCTGAAGGCT,0.962 ± 0.03
12,GGCCCAGCGC,0.976 ± 0.0011
13,TTGGTACTGT,1.02 ± 0.014
14,AGACGAAAGT,0.998 ± 0.054
15,TCTGGGAAGA,1.02 ± 0.044
16,GCCAAGTTCG,0.9787 ± 0.0072
17,ACGTGTGTTT,1.01 ± 0.017
18,TTCCGGGACG,1.027 ± 0.0033
19,TGATAATATT,0.992 ± 0.011
20,TTCAATTGGA,1 ± 0.042
21,TGGTATTGCA,0.999 ± 0.028
22,ATACAAGGCT,1.02 ± 0.03
23,ACAAGGGGCA,1.01 ± 0.028

row,Sequence,switch fluorescence ratio
1,ATGCCTGGGT,0.999 ± 0.034
2,GGTGTGTTTT,0.981 ± 0.048
3,AATCGGGCCA,0.987 ± 0.018
4,TGATGCATAT,1.1411 ± 0.0011
5,AGAATTAAG,0.96 ± 0.017
6,TATGGATTTT,0.987 ± 0.016
7,TTTTTCACTG,1 ± 0.052
8,TCAATACTTC,1.88 ± 0.19
9,TTTTGATTTT,1.02 ± 0.041
10,TTGTTCTTAA,1.05 ± 0.11
11,TTGTGACAGT,1.01 ± 0.024
12,TTTAAGTCTC,1.001 ± 0.0062
13,CAGGCGTCGT,1.035 ± 0.0023
14,TAAAAGGAAA,0.9773 ± 0.0045
15,GTAATGGGGG,1.09 ± 0.071
16,CGTTTTATGC,0.947 ± 0.059
17,GATGGGGGAT,1.01 ± 0.028
18,CCATGAGTGT,0.997 ± 0.032
19,TTTTGATGTA,0.977 ± 0.019
20,GGTAATTGTT,0.998 ± 0.025
21,TAGTTTTGTA,0.971 ± 0.05
22,TGAAGGGTTC,1.12 ± 0.24
23,TATCGAAGCG,0.969 ± 0.058

row,Sequence,switch fluorescence ratio
1,GAGTTCAGGA,1 ± 0.021
2,AAAGGTTAGG,0.958 ± 0.029
3,TTCTTTTATC,0.983 ± 0.03
4,GTGGGTGGGA,0.982 ± 0.046
5,GGATTACTAA,0.99 ± 0.029
6,CTGACGGCTT,1.056 ± 0.0068
7,TTCGGACCTT,1.21 ± 0.021
8,TCGTCTAATG,0.9784 ± 0.0016
9,GCGGGGGAAC,1.018 ± 0.0055
10,GGGTACTTGG,0.99 ± 0.026
11,ACGTTATAAG,1.1 ± 0.011
12,GGCATTGGGG,1.03 ± 0.029
13,CTCTAATATC,1.47 ± 0.091
14,TAGGTATTGT,1.003 ± 0.0091
15,TCAGGGGATT,1.02 ± 0.031
16,ATTAGGTATA,0.9712 ± 0.0036
17,AACCGTGGCG,1.07 ± 0.041
18,TTATGATAGC,0.965 ± 0.044
19,TCGGAGGCCT,1.04 ± 0.04
20,GGGAGAAGAG,0.979 ± 0.036
21,CGTGGGGGGC,1.01 ± 0.02
22,CACCAGAGCT,1.09 ± 0.026
23,CAGTTAGATA,1.02 ± 0.031

row,Sequence,switch fluorescence ratio
1,TTAGTATCTC,1.03 ± 0.047
2,ACGGGGGACT,1.02 ± 0.049
3,ATACGATTGG,0.9674 ± 0.0044
4,GGGTCTAAGG,1.007 ± 0.0045
5,CTGATCAGTT,1.02 ± 0.017
6,TTGGTCTGGT,0.973 ± 0.024
7,GGATGTGTTT,0.999 ± 0.029
8,TAGTTAGGAG,0.9945 ± 0.0081
9,ATTGGTGGAG,1.007 ± 0.0033
10,CGTGTTGGAC,1.016 ± 0.0032
11,TCAATAGACC,1.05 ± 0.011
12,AGAATTTATT,1.01 ± 0.039
13,TATCTGGCTT,1.019 ± 0.0013
14,CGGGAGATTA,0.9872 ± 0.0084
15,GGGTCCATTC,1.01 ± 0.02
16,GAGGCTGGTA,0.98 ± 0.028
17,AGGAGATTCA,0.959 ± 0.041
18,GGTCTGGGAG,1 ± 0.023
19,TGACGCGTTT,1.02 ± 0.041
20,AAAGTATGCT,0.9898 ± 0.0015
21,TTGCGGTGCG,1.01 ± 0.062
22,TGGTTTCCCA,0.9738 ± 0.0042
23,ACGTTGTTTT,0.984 ± 0.011

row,Sequence,switch fluorescence ratio
1,CGGGGGATGC,1.05 ± 0.036
2,TTTGCAAGTA,1.2 ± 0.3
3,ACCGTAAACG,0.999 ± 0.12
4,TTATCGAATT,1 ± 0.025
5,TTCGGAGTCA,1.1 ± 0.019
6,GAGGGTGCAG,1.004 ± 0.0043
7,GATTTAAGAT,1.01 ± 0.029
8,CAGTGGCGTC,1.05 ± 0.02
9,TTAGACGGGT,0.982 ± 0.0043
10,CGTGCTAGAA,1.0154 ± 0.001
11,ACATAGTTTT,0.9994 ± 0.0075
12,TTATATAGGT,0.9738 ± 0.0054
13,ATTTAAGGGA,0.982 ± 0.026
14,GAGTCTGGGA,1.032 ± 0.0051
15,GACCATTGTC,0.99 ± 0.063
16,CGGCGGGAAG,1 ± 0.023
17,AAAAACGTCA,1.003 ± 0.0045
18,TATTATAGGA,0.982 ± 0.017
19,CTCAGTATCT,0.972 ± 0.041
20,GCTGCGGGG,1.01 ± 0.053
21,TACGGGGGTT,0.994 ± 0.011
22,TAATGGTCCG,1.03 ± 0.03
23,ATATCTAAGT,0.9984 ± 0.0034

row,Sequence,switch fluorescence ratio
1,GCGGGGGTAC,1.11 ± 0.077
2,TGAAAAGAGG,0.988 ± 0.021
3,AGATTCTGTA,0.97 ± 0.011
4,GGATGCAGCT,1.12 ± 0.1
5,TGGGTGGCGA,1.02 ± 0.043
6,GATGGGGCTG,1.02 ± 0.062
7,TTTTCGAAGC,2.08 ± 1.5
8,ACTCTAGTAC,1.31 ± 0.034
9,TTTTGTTAGG,0.98 ± 0.01
10,CGAACGCCTG,1.1 ± 0.036
11,TAATAAAGGT,0.995 ± 0.025
12,AGGGGGGATA,1.02 ± 0.074
13,TGAGAAGTTG,1.01 ± 0.066
14,TATTCATTGT,1.005 ± 0.0074
15,CGGCTGGCGA,1.01 ± 0.059
16,AACAGTGATA,1.01 ± 0.027
17,GGGGTTGTGA,1.01 ± 0.022
18,AAGGTCATAA,1.01 ± 0.053
19,TTCCTGCTTG,1.36 ± 0.6
